Source: publication PMC9514091 (2022)

B1: host PD-L1-Fc fusion protein (Fc fusion)
chain: FTITVPKDLYVVEYGSNVTLECRFPVDKQLNLLALVVYWEMEDKKIIQFVNGEEDLNVQHSSYNQRALLLKNQLPLGKAALQITDVKLQDAGIYCCLISYGGADYKRITLKVNASYRKINQTISVDPVTSEHELMCQAEGYPEAEVIWTSSDHRVLSGKTTITSSKREEKLFNVTSTLRINTTANEIFYCIFRRLGHEENSTAELV
B2: host PD-1-Fc fusion protein (Fc fusion)
chain: LDAPSRPWSPLTFSPARLTVPEGANATFTCSFSSKPEHFVLNWYRMSPSNQTDKLAAFPEDRSQPGRDRRFHVTPLPGGRHFHMSIMAAQRNDSGVYFCGAIYLPPKTQINESRPAELT

Assays:
[1] = target: B2; assay: SPR
[2] = target: De2-Fc fusion protein (Tursiops truncatus gammaherpesvirus 1); assay: SPR

Binder	koff [1] [s⁻¹]	koff [2] [s⁻¹]
B1	0.000488	–
B2	–	0.000696
